Data from US11402384B2 (Duke University, priority 2015, dated 2022).
Substitutions are numbered along the chain they refer to. Names may count otherwise. Read-outs that look alike come from different tables or passages of the source.

B1: W244C Badan: tsGBP2_C244 (SEQ ID NO: 30) Badan conjugate (conjugate)
chain: MKLEIFSWWAGDEGPALEALIRLYKQKYPGVEVINATVTGGAGVNAKAVLKTRMLGGDPPDTFQVHAGQELIGTWVVADRMEDLTSLFRQEGWLQAFPKGLIDLLSYKGGIWSVPVNIHRSNVMWYIPAKLKEWGVTPPKTWAEFLATAQTLKRKGLEAPLALGENWTQQHLWESVALATLGADGWNNLWSGKLKFTDPKAVAVWETFGKVLDAANKDAAGLSWQQAVDRVVQGKAAFNIMGDCAAGYMSTTLKLKPGTDFAWTPSPGTSGIFMMLSDSFGLPKGAKNRQNAINWLKLVGSKEGQDTFNPLKGSIAARLDSDPAKYNAYGQSAMKDWKSNRIVGSLVHGAVAPESFMSQFGTVMEIFLQSRNPQAAANAAQAIANQVGLGRGGSHHHHHH
modifications: Badan conjugate; tsGBP2_C244 (244C substitution mutant with signal peptide replaced with M and a GGSHHHHHH at C-terminus)
B2: W337 Badan: tsGBP2_C337 (SEQ ID NO: 34) Badan conjugate (conjugate)
chain: B1 chain with C244W, W337C
modifications: Badan conjugate; tsGBP2_C337 (337C substitution mutant with signal peptide replaced with M and a GGSHHHHHH at C-terminus)
B3: W337 Acrylodan: tsGBP2_C337 (SEQ ID NO: 34) Acrylodan conjugate (conjugate)
chain: B1 chain with C244W, W337C
modifications: Acrylodan conjugate; tsGBP2_C337 (337C substitution mutant with signal peptide replaced with M and a GGSHHHHHH at C-terminus)
B4: S277C Badan: tsGBP2_C277 (SEQ ID NO: 31) Badan conjugate (conjugate)
chain: B1 chain with C244W, S277C
modifications: Badan conjugate; tsGBP2_C277 (cysteine substitution mutant with signal peptide replaced with M and a GGSHHHHHH at C-terminus)
B5: M357 Badan: tsGBP2_C357 (SEQ ID NO: 36) Badan conjugate (conjugate)
chain: B1 chain with C244W, M357C
modifications: Badan conjugate; tsGBP2_C357 (357C substitution mutant with signal peptide replaced with M and a GGSHHHHHH at C-terminus)
B6: H348 Acrylodan: tsGBP2_C348 (SEQ ID NO: 35) Acrylodan conjugate (conjugate)
chain: B1 chain with C244W, H348C
modifications: Acrylodan conjugate; tsGBP2_C348 (348C substitution mutant with signal peptide replaced with M and a GGSHHHHHH at C-terminus)
B7: K312C Acrylodan: tsGBP2_C312 (SEQ ID NO: 33) Acrylodan conjugate (conjugate)
chain: B1 chain with C244W, K312C
modifications: Acrylodan conjugate; tsGBP2_C312 (312C substitution mutant with signal peptide replaced with M and a GGSHHHHHH at C-terminus)
B8: K312C Badan: tsGBP2_C312 (SEQ ID NO: 33) Badan conjugate (conjugate)
chain: B1 chain with C244W, K312C
modifications: Badan conjugate; tsGBP2_C312 (312C substitution mutant with signal peptide replaced with M and a GGSHHHHHH at C-terminus)
B9: H348 Badan: tsGBP2_C348 (SEQ ID NO: 35) Badan conjugate (conjugate)
chain: B1 chain with C244W, H348C
modifications: Badan conjugate; tsGBP2_C348 (348C substitution mutant with signal peptide replaced with M and a GGSHHHHHH at C-terminus)
B10: D278C Badan: tsGBP2_C278 (SEQ ID NO: 32) Badan conjugate (conjugate)
chain: B1 chain with C244W, D278C
modifications: Badan conjugate; tsGBP2_C278 (278C substitution mutant with signal peptide replaced with M and a GGSHHHHHH at C-terminus)
B11: S277C Acrylodan: tsGBP2_C277 (SEQ ID NO: 31) Acrylodan conjugate (conjugate)
chain: B1 chain with C244W, S277C
modifications: Acrylodan conjugate; tsGBP2_C277 (cysteine substitution mutant with signal peptide replaced with M and a GGSHHHHHH at C-terminus)
B12: D278C Acrylodan: tsGBP2_C278 (SEQ ID NO: 32) Acrylodan conjugate (conjugate)
chain: B1 chain with C244W, D278C
modifications: Acrylodan conjugate; tsGBP2_C278 (278C substitution mutant with signal peptide replaced with M and a GGSHHHHHH at C-terminus)
B13: W8C Acrylodan: tsGBP2_C8 (SEQ ID NO: 17) Acrylodan conjugate (conjugate)
chain: B1 chain with W8C, C244W
modifications: Acrylodan conjugate; tsGBP2_C8 (8C substitution mutant with signal peptide replaced with M and a GGSHHHHHH at C-terminus)
B14: M357 Acrylodan: tsGBP2_C357 (SEQ ID NO: 36) Acrylodan conjugate (conjugate)
chain: B1 chain with C244W, M357C
modifications: Acrylodan conjugate; tsGBP2_C357 (357C substitution mutant with signal peptide replaced with M and a GGSHHHHHH at C-terminus)

Assay: Ratiometric fluorescence glucose titration of fluorescent conjugates
Assay type: binding
Set-up: key to Shape (fluorescence response to glucose) / Change (fluorescence response to glucose): m, monochromatic; d, dichromatic (i.e. spectral shape change); 0, no change
Details: tsGBP2 cysteine scan; for Kd: ratiometric fit at λ1 and λ2
Excerpt: Semi-synthetic FRSs can be engineered by site-specifically attaching thiol-reactive, environmentally sensitive fluorophores that respond to ligand-mediated conformational changes. Identification of FRS candidates that can be used for sensing applications comprises three steps: • 1. Cysteine scan. Mutant glucose-binding proteins containing single cysteines are constructed for site-specific attachment of thiol-reactive fluorophores. […] Candidate positions fall into three classes: endosteric, replacing a residue that contacts the ligand directly; peristeric, located at the rim of the binding site; allosteric (Marvin et al., 1997, Proc Natl Acad Sci USA, 94, 4366-71; Marvin, 1998, J Am Chem Soc, 120, 7-11), located outside the binding site at sites that undergo local structural changes in concert with the hinge-bending motion. • 2. Fluorophore screening. Thiol-reactive, environmentally sensitive fluorophores are attached to each cysteine mutant prepared in step 1. • 3. Evaluation of the glucose-mediated change of all the fluorescent conjugates prepared in step 2. Responses to ligand binding in which there is both a change in fluorescence emission intensity and spectral shape are essential for chemometric applications, because such changes enable ratiometric measurements. Changes in spectral shape typically are accompanied by a shift in the wavelength of the emission intensity maxima. Three classes of fluorescent responses are possible: • i. No response. • ii. Monochromatic response (emission intensity increases or decreases without a change in spectral shape) • iii.
Determination of temperature- and ligand-dependent fluorescence landscapes. […] Temperatures were advanced in 1K steps.
Determination of emission intensity spectra.
2 For a single glucose-binding site, the fractional saturation is given by […]

[1] = Acrylodan conjugate, read-out: Kd ^appKd

Molecule | Shape (fluorescence response to glucose) (Badan conjugate) | Shape (fluorescence response to glucose) (Acrylodan conjugate) | other results
B1 | m |  | 
B2 | 0 |  | 
B3 |  | m | 
B4 | 0 |  | 
B5 | m |  | 
B6 |  | m | Kd [1]: ~1300 µM
B7 |  | d | Kd [1]: 9 µM; Kd (Acrylodan conjugate, read-out: Kd ^trueKd): 10 µM
B8 | m |  | 
B9 | d |  | Kd (Badan conjugate, read-out: Kd ^appKd): ~4300 µM; Kd (Badan conjugate, read-out: Kd ^trueKd): ~5200 µM
B10 | 0 |  | 
B11 |  | 0 | 
B12 |  | m | 
B13 |  | m | 
B14 |  | 0 | 
